# Laboratory results taken from patent US20250186594A1.
# Target: His-tagged human IL-18BP (human) (UniProt O95998)
# Experiment: AlphaLISA of free IL-18BP
row,Kd,Substance
1,55.6 nM,"IL-18 variant SEQ ID NO: 4 (E6K, C38A, K53A, C68A, M86C) (from UniProt Q14116 37-193) (ligand)"
2,129 nM,"IL-18 variant SEQ ID NO: 4 with 30 kDa PEG (E6K, C38A, K53A, C68A, M86C-30kPEG) (from UniProt Q14116 37-193) (ligand)"
3,181 nM,"IL-18 variant SEQ ID NO: 5 (E6K, V11I, C38A, K53A, T63A, C68A, C76A, M86C, C127A) (from UniProt Q14116 37-193) (ligand)"
4,31.4 nM,"IL-18 variant SEQ ID NO: 5 with 30 kDa PEG (E6K, V11I, C38A, K53A, T63A, C68A, C76A, C127A, M86C-30kPEG) (from UniProt Q14116 37-193) (ligand)"
5,631 nM,"IL-18 variant SEQ ID NO: 6 (E6K, V11I, C38A, K53A, T63A, C68A, C76A, D98C, C127A) (from UniProt Q14116 37-193) (ligand)"
6,20.2 nM,"IL-18 variant SEQ ID NO: 6 with 30 kDa PEG (E6K, V11I, C38A, K53A, T63A, C68A, C76A, C127A, D98C-30kPEG) (from UniProt Q14116 37-193) (ligand)"
7,61.1 nM,"IL-18 variant SEQ ID NO: 8 (E6K, V11I, C38A, K53A, T63A, C68A, C76A, T95C, C127A) (from UniProt Q14116 37-193) (ligand)"
8,82.7 nM,"IL-18 variant SEQ ID NO: 9 (E6K, C38A, K53A, C68A, D98C) (from UniProt Q14116 37-193) (ligand)"
9,151 nM,"IL-18 variant SEQ ID NO: 9 with 30 kDa PEG (E6K, C38A, K53A, C68A, D98C-30kPEG) (from UniProt Q14116 37-193) (ligand)"
10,36.8 nM,"IL-18 variant SEQ ID NO: 11 (E6K, V11I, C38A, K53A, C76A, C127A) (from UniProt Q14116 37-193) (ligand)"
11,44.4 nM,"IL-18 variant SEQ ID NO: 28 (E6K, C38A, K53A, T63A, C76A, C127A) (from UniProt Q14116 37-193) (ligand)"
12,40.7 nM,"IL-18 variant SEQ ID NO: 28 with 30 kDa PEG (E6K, C38A, K53A, T63A, C76A, C127A, C68-30kPEG) (from UniProt Q14116 37-193) (ligand)"
13,50.7 nM,"IL-18 variant SEQ ID NO: 59 with 10 kDa PEG (E6K, C38A, K53A, C68-10kPEG) (from UniProt Q14116 37-193) (ligand)"
14,48.5 nM,"IL-18 variant SEQ ID NO: 59 with 20 kDa PEG (E6K, C38A, K53A, C68-20kPEG) (from UniProt Q14116 37-193) (ligand)"
15,8.86 nM,"IL-18 variant SEQ ID NO: 204 (V11I, C38A, K53A, C76A, C127A) (from UniProt Q14116 37-193) (ligand)"
16,0.66 nM,"IL-18 variant SEQ ID NO: 205 (V11I, C38A, K53A, T63A, C76A, C127A) (from UniProt Q14116 37-193) (ligand)"
17,9.74 nM,"IL-18 variant SEQ ID NO: 206 (V11I, C38A, K53A, S55A, C76A, C127A) (from UniProt Q14116 37-193) (ligand)"
18,373 nM,"IL-18 variant SEQ ID NO: 207 (V11I, C38A, M51G, K53A, C76A, C127A) (from UniProt Q14116 37-193) (ligand)"
19,25.8 nM,"IL-18 variant SEQ ID NO: 208 (V11I, C38A, K53A, D54A, C76A, C127A) (from UniProt Q14116 37-193) (ligand)"
20,57.2 nM,"IL-18 variant SEQ ID NO: 209 (F2A, V11I, C38A, K53A, C76A, C127A) (from UniProt Q14116 37-193) (ligand)"

row,Kd,Substance
1,0.64 nM,"IL-18 variant SEQ ID NO: 210 (V11I, E31A, C38A, K53A, C76A, C127A) (from UniProt Q14116 37-193) (ligand)"
2,1.24 nM,"IL-18 variant SEQ ID NO: 211 (V11I, T34A, C38A, K53A, C76A, C127A) (from UniProt Q14116 37-193) (ligand)"
3,2.88 nM,"IL-18 variant SEQ ID NO: 212 (V11I, D35A, C38A, K53A, C76A, C127A) (from UniProt Q14116 37-193) (ligand)"
4,1.12 nM,"IL-18 variant SEQ ID NO: 213 (V11I, S36A, C38A, K53A, C76A, C127A) (from UniProt Q14116 37-193) (ligand)"
5,4.55 nM,"IL-18 variant SEQ ID NO: 214 (V11I, D37A, C38A, K53A, C76A, C127A) (from UniProt Q14116 37-193) (ligand)"
6,2.12 nM,"IL-18 variant SEQ ID NO: 215 (V11I, E31A, D37A, C38A, K53A, C76A, C127A) (from UniProt Q14116 37-193) (ligand)"
7,0.74 nM,"IL-18 variant SEQ ID NO: 216 (V11I, C38A, D40A, K53A, C76A, C127A) (from UniProt Q14116 37-193) (ligand)"
8,18.5 nM,"IL-18 variant SEQ ID NO: 217 (V11I, C38A, N41A, K53A, C76A, C127A) (from UniProt Q14116 37-193) (ligand)"
9,13.7 nM,"IL-18 variant SEQ ID NO: 218 (V11I, C38A, K53A, C76A, C127A, D132A) (from UniProt Q14116 37-193) (ligand)"
10,1.24 nM,"IL-18 variant SEQ ID NO: 219 (V11I, C38A, K53A, C76A, G108A, C127A) (from UniProt Q14116 37-193) (ligand)"
11,0.55 nM,"IL-18 variant SEQ ID NO: 220 (V11I, C38A, K53A, C76A, H109A, C127A) (from UniProt Q14116 37-193) (ligand)"
12,0.71 nM,"IL-18 variant SEQ ID NO: 221 (V11I, C38A, K53A, C76A, D110A, C127A) (from UniProt Q14116 37-193) (ligand)"
13,0.06 nM,"IL-18 variant SEQ ID NO: 222 (K8R, V11I, C38A, C76A, Q103E, C127A) (from UniProt Q14116 37-193) (ligand)"
14,0.85 nM,"IL-18 variant SEQ ID NO: 223 (K8E, V11I, C38A, C76A, Q103R, C127A) (from UniProt Q14116 37-193) (ligand)"
15,0.05 nM,"IL-18 variant SEQ ID NO: 224 (V11I, C38A, C76A, Q103K, C127A) (from UniProt Q14116 37-193) (ligand)"
16,0.08 nM,"IL-18 variant SEQ ID NO: 225 (V11I, C38A, S55H, C76A, C127A) (from UniProt Q14116 37-193) (ligand)"
17,0.15 nM,"IL-18 variant SEQ ID NO: 226 (V11I, C38A, S55R, C76A, C127A) (from UniProt Q14116 37-193) (ligand)"
18,0.02 nM,"IL-18 variant SEQ ID NO: 227 (V11I, C38A, S55T, C76A, C127A) (from UniProt Q14116 37-193) (ligand)"
19,0.04 nM,"IL-18 variant SEQ ID NO: 228 (V11I, C38A, C76A, S105I, C127A) (from UniProt Q14116 37-193) (ligand)"
20,0.05 nM,"IL-18 variant SEQ ID NO: 229 (V11I, C38A, C76A, S105K, C127A) (from UniProt Q14116 37-193) (ligand)"
